Measurements from the supplement of paper PMC9170038.

Tested on: K4 kissing-loop RNA reporter
Assay: apparent KD of K4 kissing-loop reporter; higher = weaker reporter binding
Conditions: Eterna round: R107
Protocol: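 RNA-MaP round R107: designed RNA switches with theophylline, tryptophan, arginine or FMN aptamers are transcribed on-chip within common flanks. They are titrated with a labelled K4 kissing-loop RNA reporter in RNA-MaP buffer (100 mM Tris pH 7.5, 80 mM KCl, 4 mM MgCl2), without ligand or with the indicated ligand. Median apparent KD per design.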

[1] = input ligand: theophylline 20 uM
[2] = input ligand: tryptophan 2.4 mM
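Also: bound reporter read as fluorescence of individual clusters on recovered sequencing chips by microscopy, with normalized cluster intensities fitted with a binding model.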

GUAGCACAGUCGGCCGCCACUGUCGGUUCUCCAGUGAUGUUGGAGUUAGUUCGUCGCAGUUCAAACAGGACCGGGACCAUUCCUU [theeternabot_exclusion_KL_Trp_B_26]
apparent KD of K4 kissing-loop reporter (input ligand: FMN 200 uM): 125 nM
apparent KD of K4 kissing-loop reporter (input ligand: arginine 13.2 mM): 135 nM
apparent KD of K4 kissing-loop reporter (input ligand: none): 127 nM
apparent KD of K4 kissing-loop reporter [1]: 132 nM
apparent KD of K4 kissing-loop reporter [2]: 121 nM

GUAUAAAUAUAAGGAUAUGCAGGGAAAGUAAGAAUGGGUUAGUUGAACUUUAGUGAUGUUGAGGAAGCAGAAGGUGUAUAUGUGU [FMN B same state]
apparent KD of K4 kissing-loop reporter (input ligand: FMN 200 uM): 650 nM
apparent KD of K4 kissing-loop reporter (input ligand: arginine 13.2 mM): 272 nM
apparent KD of K4 kissing-loop reporter (input ligand: none): 381 nM
apparent KD of K4 kissing-loop reporter [1]: 322 nM
apparent KD of K4 kissing-loop reporter [2]: 319 nM

GUAUCGCUAGGAGGAUAUUUCAUAUAACAUAUAAAUGGAUAUGCGGAGUGAUGUUCCGAUUUACGGAAAGAAGGCCUAGUGAUAC [FMN B 19]
apparent KD of K4 kissing-loop reporter (input ligand: FMN 200 uM): 119 nM
apparent KD of K4 kissing-loop reporter (input ligand: arginine 13.2 mM): 172 nM
apparent KD of K4 kissing-loop reporter (input ligand: none): 192 nM
apparent KD of K4 kissing-loop reporter [1]: 207 nM
apparent KD of K4 kissing-loop reporter [2]: 172 nM

GUAUUGUGAAUGGAUACCAGACACCCGAGUGAUGUUCGGAGCAGAGUGAUGUUCUAAUAAGUCCCUUGGCAGCCGGAAGCAGCCG [Same State Theophylline B GF 3]
apparent KD of K4 kissing-loop reporter (input ligand: FMN 200 uM): 223 nM
apparent KD of K4 kissing-loop reporter (input ligand: arginine 13.2 mM): 296 nM
apparent KD of K4 kissing-loop reporter (input ligand: none): 340 nM
apparent KD of K4 kissing-loop reporter [1]: 392 nM
apparent KD of K4 kissing-loop reporter [2]: 242 nM

GUCUCGAGUGAUGUUCGGGUCGUUUGGGAAGGAGCGCCCGGAAGGGCAGGUAGGUCGCCCGGACCGCGCGGGCAACCGCGCGGCC [#2 Same State - Arginine A Attempt #12 (HarryS)]
apparent KD of K4 kissing-loop reporter (input ligand: FMN 200 uM): 228 nM
apparent KD of K4 kissing-loop reporter (input ligand: arginine 13.2 mM): 162 nM
apparent KD of K4 kissing-loop reporter (input ligand: none): 217 nM
apparent KD of K4 kissing-loop reporter [1]: 212 nM
apparent KD of K4 kissing-loop reporter [2]: 192 nM

GUGAGUGACGGAGGAUAUGCGAUAGAUGUAGGAAAAUUAGUGAUGUUAGUUAUGGUAGAGAUAGAAGUAGAAGGUUGGUGUGUGU [RHig 3/7]
apparent KD of K4 kissing-loop reporter (input ligand: FMN 200 uM): 551 nM
apparent KD of K4 kissing-loop reporter (input ligand: arginine 13.2 mM): 394 nM
apparent KD of K4 kissing-loop reporter (input ligand: none): 561 nM
apparent KD of K4 kissing-loop reporter [1]: 585 nM
apparent KD of K4 kissing-loop reporter [2]: 395 nM

GUGCAGUGAUGUUGCACGAGGAAAGACGAUACCAGCCGUAAAUAAGGCCCUUGGCAGCGUAGGCUAGCAUAAAGCAUGCUAGUCC [Edeson]
apparent KD of K4 kissing-loop reporter (input ligand: FMN 200 uM): 131 nM
apparent KD of K4 kissing-loop reporter (input ligand: arginine 13.2 mM): 98.8 nM
apparent KD of K4 kissing-loop reporter (input ligand: none): 111 nM
apparent KD of K4 kissing-loop reporter [1]: 98.4 nM
apparent KD of K4 kissing-loop reporter [2]: 78 nM

GUGCAGUGAUGUUGCACGAGGAAAGACGAUACCAGCCGUAAAUAAGGCCCUUGGCAGCGUGGGCUAGCAUAAAGCAUGCUAGUCU [Edbemavela]
apparent KD of K4 kissing-loop reporter (input ligand: FMN 200 uM): 126 nM
apparent KD of K4 kissing-loop reporter (input ligand: arginine 13.2 mM): 97.7 nM
apparent KD of K4 kissing-loop reporter (input ligand: none): 113 nM
apparent KD of K4 kissing-loop reporter [1]: 111 nM
apparent KD of K4 kissing-loop reporter [2]: 99.6 nM

GUGGUGGUGGCGGCCGCCACUGAAGAUAAUGAGUGAUGUUCAAGUGAUGUUAAUAAGAACAGUAUCAGGACCGGGCCACCACCAC [Default title]
apparent KD of K4 kissing-loop reporter (input ligand: FMN 200 uM): 37.5 nM
apparent KD of K4 kissing-loop reporter (input ligand: arginine 13.2 mM): 27.7 nM
apparent KD of K4 kissing-loop reporter (input ligand: none): 34.1 nM
apparent KD of K4 kissing-loop reporter [1]: 25.4 nM
apparent KD of K4 kissing-loop reporter [2]: 33.8 nM

GUUACGCAUGGAAGGAGCGCACUCCGAUUGGACGACACAGUGAUGUUGUGGUUCGUUCGAAUGCAGGUAGGUCGCCAUGUGUAAC [Ex Arginine B K4 19]
apparent KD of K4 kissing-loop reporter (input ligand: FMN 200 uM): 159 nM
apparent KD of K4 kissing-loop reporter (input ligand: arginine 13.2 mM): 148 nM
apparent KD of K4 kissing-loop reporter (input ligand: none): 150 nM
apparent KD of K4 kissing-loop reporter [1]: 134 nM
apparent KD of K4 kissing-loop reporter [2]: 148 nM

GUUACGCAUGGAAGGAGCGCGAAAAUUUAUAGUGAGUGAUGUUCACAAAUAAGAAUAAUAACGCAGGUAGGUCGCCAUGUGUAAC [Ex Arginine B K4 5]
apparent KD of K4 kissing-loop reporter (input ligand: FMN 200 uM): 87.1 nM
apparent KD of K4 kissing-loop reporter (input ligand: arginine 13.2 mM): 86.8 nM
apparent KD of K4 kissing-loop reporter (input ligand: none): 105 nM
apparent KD of K4 kissing-loop reporter [1]: 118 nM
apparent KD of K4 kissing-loop reporter [2]: 95.2 nM

GUUAUGGACCUUUUGAUCGUUCGUAGCGAUACCAGACAAUGGGCAGUCCCUUGGCAGCGCUAAUUGAGUGAUGUUCAAACGUGCA [theeternabot_exclusion_KL_Theo_A_46]
apparent KD of K4 kissing-loop reporter (input ligand: FMN 200 uM): 730 nM
apparent KD of K4 kissing-loop reporter (input ligand: arginine 13.2 mM): 309 nM
apparent KD of K4 kissing-loop reporter (input ligand: none): 680 nM
apparent KD of K4 kissing-loop reporter [1]: 331 nM
apparent KD of K4 kissing-loop reporter [2]: 364 nM

UAACUGCAGUGAUGUUGCAGAUGUCCUGACUAGGAUAUCAGGAAACUGAGAAGGAGUCCCUUCUACACUGCAGAGAAGGAGGACA [[K1]-[K2]-[F1]'-[F1]-[F2]-[F2]'-[K]'-[F]''_Design1]
apparent KD of K4 kissing-loop reporter (input ligand: FMN 200 uM): 283 nM
apparent KD of K4 kissing-loop reporter (input ligand: arginine 13.2 mM): 125 nM
apparent KD of K4 kissing-loop reporter (input ligand: none): 145 nM
apparent KD of K4 kissing-loop reporter [1]: 125 nM
apparent KD of K4 kissing-loop reporter [2]: 139 nM

UAACUUGCAGUGAUGUUGCAAGAACUGGAUACCAGCAUGGAAACAUGCCCUUGGCAGCCAGAAGGUAUCCUACAUCACAGAUACU [Design2]
apparent KD of K4 kissing-loop reporter (input ligand: FMN 200 uM): 220 nM
apparent KD of K4 kissing-loop reporter (input ligand: arginine 13.2 mM): 202 nM
apparent KD of K4 kissing-loop reporter (input ligand: none): 214 nM
apparent KD of K4 kissing-loop reporter [1]: 226 nM
apparent KD of K4 kissing-loop reporter [2]: 197 nM

UAACUUGCAGUGAUGUUGCAAGAACUGGAUACCAGCAUGGAAACAUGCCCUUGGCAGCCAGAAGGUAUCCUCUGCAAGAGAUACA [Design1]
apparent KD of K4 kissing-loop reporter (input ligand: FMN 200 uM): 318 nM
apparent KD of K4 kissing-loop reporter (input ligand: arginine 13.2 mM): 274 nM
apparent KD of K4 kissing-loop reporter (input ligand: none): 311 nM
apparent KD of K4 kissing-loop reporter [1]: 289 nM
apparent KD of K4 kissing-loop reporter [2]: 292 nM

UAAGAUUCUGUCUCAUUGAGACAGAAUCAACGAGGACCGGUACGGCCGCCACUCGGGUCCUAGAGUGAUGUUCUAAUAAUAUAAU [AK1 SS Tryptophan A]
apparent KD of K4 kissing-loop reporter (input ligand: FMN 200 uM): 283 nM
apparent KD of K4 kissing-loop reporter (input ligand: arginine 13.2 mM): 350 nM
apparent KD of K4 kissing-loop reporter (input ligand: none): 296 nM
apparent KD of K4 kissing-loop reporter [1]: 369 nM
apparent KD of K4 kissing-loop reporter [2]: 176 nM

UAAUAAUAAUGAUAAUAAUCAAGUGGUGGACGAGGACCGGUACGGCCGCCACUCGAAAAUGCAGUGAUGUUGUAAUACGGAUAAU [Exclusion - Tryptophan A (Freestyle 2)]
apparent KD of K4 kissing-loop reporter (input ligand: FMN 200 uM): 98.3 nM
apparent KD of K4 kissing-loop reporter (input ligand: arginine 13.2 mM): 180 nM
apparent KD of K4 kissing-loop reporter (input ligand: none): 133 nM
apparent KD of K4 kissing-loop reporter [1]: 203 nM
apparent KD of K4 kissing-loop reporter [2]: 94.3 nM

UAAUGGUAAGUGAUGUUUACCUGGAACGAUACCAGUCGCCAUGAGGACCCUUGGCAGCGUCACACAGCCUUCUAGUUGUGGUCUU [theeternabot_sameState_KL_Theo_A_46]
apparent KD of K4 kissing-loop reporter (input ligand: FMN 200 uM): 418 nM
apparent KD of K4 kissing-loop reporter (input ligand: arginine 13.2 mM): 298 nM
apparent KD of K4 kissing-loop reporter (input ligand: none): 347 nM
apparent KD of K4 kissing-loop reporter [1]: 499 nM
apparent KD of K4 kissing-loop reporter [2]: 353 nM

UACUAUAUUCUGUCGUUUAUAUUAUUUUGUCAGGAUAUCGUUUAUUCGAGAAGGGACACUAUCUAGUGAUGUUAGAUUUUUCUUU [JR_Nu_ExcFMNA_Sub029]
apparent KD of K4 kissing-loop reporter (input ligand: FMN 200 uM): 55.8 nM
apparent KD of K4 kissing-loop reporter (input ligand: arginine 13.2 mM): 130 nM
apparent KD of K4 kissing-loop reporter (input ligand: none): 86.7 nM
apparent KD of K4 kissing-loop reporter [1]: 108 nM
apparent KD of K4 kissing-loop reporter [2]: 67.7 nM

UACUUAUUUUUUAACUUAAAUUUUUCAGAAGGAGCGUGAUCAUUCACAGGUAGGUCGCUGAACUAGUGAUGUUAGUUUUAAUUUU [JR_Nu_ExcArginiA_Sub024]
apparent KD of K4 kissing-loop reporter (input ligand: FMN 200 uM): 62.9 nM
apparent KD of K4 kissing-loop reporter (input ligand: arginine 13.2 mM): 115 nM
apparent KD of K4 kissing-loop reporter (input ligand: none): 63.9 nM
apparent KD of K4 kissing-loop reporter [1]: 104 nM
apparent KD of K4 kissing-loop reporter [2]: 56.5 nM

UAGCAUUUGCUCGAGUGAUGUUCGAGCGAAGGAGCGCGAGAAAUCGCAGGUAGGUCGCGCUCGAACUAUGAGCGAUCAUUUAUUG [Arg A Ex t2d]
apparent KD of K4 kissing-loop reporter (input ligand: FMN 200 uM): 363 nM
apparent KD of K4 kissing-loop reporter (input ligand: arginine 13.2 mM): 232 nM
apparent KD of K4 kissing-loop reporter (input ligand: none): 312 nM
apparent KD of K4 kissing-loop reporter [1]: 395 nM
apparent KD of K4 kissing-loop reporter [2]: 331 nM

UAGUCCUAGUGAUGGUUAUCACGUGGUGGGCGAGGACCGGUACGGCCGCCACUCGACUAUGCAGUGAUGUUGCAAUCCGGACAAU [Exclusion - Tryptophan A (Freestyle 16)]
apparent KD of K4 kissing-loop reporter (input ligand: FMN 200 uM): 319 nM
apparent KD of K4 kissing-loop reporter (input ligand: arginine 13.2 mM): 411 nM
apparent KD of K4 kissing-loop reporter (input ligand: none): 423 nM
apparent KD of K4 kissing-loop reporter [1]: 353 nM
apparent KD of K4 kissing-loop reporter [2]: 116 nM
